Measured values taken from the supplement of paper PMC9170038.

System: MS2 coat protein
Assay: apparent KD of MS2 coat protein; higher = weaker reporter binding
Conditions: Eterna round: R107
Experimental: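 RNA-MaP round R107: designed RNA switches with theophylline, tryptophan, arginine or FMN aptamers are transcribed on-chip within common flanks. They are titrated with SNAP-549-labelled MS2 coat protein in RNA-MaP buffer (100 mM Tris pH 7.5, 80 mM KCl, 4 mM MgCl2), without ligand or with the indicated ligand. Median apparent KD per design.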

[1] = input ligand: theophylline 20 uM
[2] = input ligand: tryptophan 2.4 mM
[3] = input ligand: theophylline 2 mM

Sequence	apparent KD of MS2 coat protein (input ligand: arginine 13.2 mM)	apparent KD of MS2 coat protein [1]	apparent KD of MS2 coat protein [2]	apparent KD of MS2 coat protein (input ligand: none)	apparent KD of MS2 coat protein [3]
UGCAAAUGAUGAGAUACCAGUUCAGUUAAAUACAUGAGGAUCACCCAUGUCAGGGAACUCAACCCUUGGCAGCUCGAUGCACUCA [theeternabot_sameState_MS2_Theo_B_43]	48 nM	56.7 nM	59 nM		
GGAUAGGACAGAAGGAGCGUGAGAUGCAUACCUUCAUUCCUCACAUGAGGAUCACCCAUGUCACAGGUAGGUCGCUGUCCUAUCG [#20 Exclusion - Arginine B]	64.8 nM	108 nM	90.7 nM	93.5 nM	96.5 nM
CGCAACAUGAGGAUCACCCAUGUAAUGACGCGAGGACCGGUACGGCCGCCACUCGCCUGCCAAUGAGCGCAUGCGGCCUGGGUAU [Exclusion Tryp A GF7]	11.9 nM	16.1 nM			13.5 nM
UGGGUCGGAUGAGUAAAUUGUCCGACGUAUCGAGGACCGGUACGGCCGCCACUCGGUUGUACAUGAGGAUCACCCAUGUCAGGGU [#1 Same State - Tryptophan A Attempt #16 (HarryS)]	40.5 nM	351 nM	206 nM	436 nM	536 nM
UGGGUCGGAUGAGUAAAUUGUCGGACUCAUCGAGGACCGGUACGGCCGCCACUCGGUUGUACAUGAGGAUCACCCAUGUCAGGGU [#1 Same State - Tryptophan A Attempt #17 (HarryS)]	47.4 nM	336 nM			749 nM
AACCGAGGCUAUCCUCUACGACUAUGUGAUACCAGAAUAAUUUUAUUCCCUUGGCAGCAUGACAUGAGGAUCACCCAUGUCUCUU [SSTheo A #9]	24 nM	38.8 nM	34 nM		
GGUUAACAUGAGGAUCACCCAUGUCUUGAUACCAGUCGUUAUCUUGACCCUUGGCAGCAAGAUGACCGUUAGCAGCCGUCUUCUC [theeternabot_sameState_MS2_Theo_A_45]	11.9 nM	16.6 nM	13.2 nM		
AGCCACUCGAGUGAUCCUCACGAGUGGCUACGAGGACCGGUACGGCCGCCACUCGAAUUAACAUGAGGAUCACCCAUGUAAUAAU [Brourdmod03]	29.2 nM	188 nM			270 nM
ACAUGAAGAUUAAUCGUGGGCAUACUCGAUACCAGUAUUUUAACCUACCCUUGGCAGCGACAUGAGGAUCACCCAUGUGAGAUGA [XTheo A #8]	19.9 nM	23.5 nM	22.8 nM		
AUGCAUAGCGGAAGGAGCGCAAUAGAAUGACAUGAGGAUCACCCAUGUAUGUGAUGUGGGUUGCAGGUAGGUCGCCGAGUGGUAU [Exclusion - Arginine B (Freestyle 1)]	70.7 nM	98.8 nM	55 nM	60.5 nM	62.6 nM
AUACAUGAGGAUCACCCAUGUAUAGUUGAAGGAGCGACCAGAGGGUCAGGUAGGUCGCAACACAUGAGGAUCACCCAUGUAUCGA [DOUBLE!!! :-D #7]	30 nM	52.9 nM	34.6 nM	49.9 nM	47.5 nM
GCAUCCUAGUCGGCCGCCACUGACAUGAGGAUCACCCAUGUACAUGAGGAUCACCCAUGUUGUAGCAGGACCGGGACUAGGAUGC [SS Tryp B #17]	176 nM	277 nM	75.6 nM	259 nM	295 nM
AACCACGAGUCGGCCGCCACUUGCAACUAGUUUCAGAAGCAGAAACAUGAGGAUCACCCAUGUCGAAGGACCGGGACUUUACAGG [theeternabot_sameState_MS2_Trp_B_18]	21.6 nM	23.2 nM			17.4 nM
CCUUAAUAUAGAAGGAGCGCGCUAACAUGAGGAUCACCCAUGUAAAGGGUUUUUGGCUUAGCGCAGGUAGGUCGCUAUAAGAACC [Arg B Ex t1]	74 nM	162 nM	134 nM	128 nM	131 nM
